# Measured values taken from PMC3246092 (Gene, 2011).
# T1: Rrn7p subunit of recombinant core factor, N-terminal 6-his (S. cerevisiae, UniProt P40992 1-514)
# T1 sequence (looked up): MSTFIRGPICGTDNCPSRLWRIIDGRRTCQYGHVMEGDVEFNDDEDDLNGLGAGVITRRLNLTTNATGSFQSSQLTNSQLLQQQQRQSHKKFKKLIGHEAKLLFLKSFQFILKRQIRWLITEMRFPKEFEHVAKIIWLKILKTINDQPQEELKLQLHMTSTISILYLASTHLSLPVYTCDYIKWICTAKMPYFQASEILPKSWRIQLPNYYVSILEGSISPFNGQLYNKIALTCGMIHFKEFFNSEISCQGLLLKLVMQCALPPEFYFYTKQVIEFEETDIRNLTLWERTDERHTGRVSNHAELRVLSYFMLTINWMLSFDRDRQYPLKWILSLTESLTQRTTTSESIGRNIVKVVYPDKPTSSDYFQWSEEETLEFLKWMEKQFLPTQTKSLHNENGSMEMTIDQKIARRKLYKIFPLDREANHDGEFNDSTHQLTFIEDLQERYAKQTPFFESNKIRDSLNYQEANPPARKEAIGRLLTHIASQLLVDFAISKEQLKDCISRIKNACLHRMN
# B1: Rrn11p subunit of recombinant core factor, N-terminal 6-his (natural protein, S. cerevisiae, UniProt Q04712 1-507, looked up)
# chain: MFEVPITLTNRKFAQRRKLKYQYINYISRRFDRISKKSTTTDSLPTPENSAAENNDEEEGQNSEAGTYRRSVLQQKKRRRERHWRSVVGEIYSTTESETDSQEEETEEGGEHDTGIDKEDSDEERKFWKKYEKPEKSFEIWRTVSSQNKQPINKQKMTYHNFKKIEKIPLRKMEIPLLHCTKENKLYFQSISRGLEPLKTSTSEVRNYRTRHIVTLTDLLHLNVSRHNWSLAYKIFATLIRIPGVQIKSLWGIGVEILDNLSNSSSGLDFLQWMCQIYSSKSRFVQNINYRSIVPPFQTGSRTHTAKFAITYLWSSLINCQKSMEPSSNIIDKPFDTENDLLQELIDKISEWVLTPPFMEDAEVWFIYASCHLLKADTLSRQFVNDNKNNDLIGLDRDIKINQVIKHIHYVRTFLKICLDKGGFAVPSRLIENQLKSFESRLYGEAQDIQERDVANVYDSIDNSSVENSFGDVYETNAEFLDTQLMDLSPEDNGLDEMHYSDEDSSE
# How the values were obtained:
# [1] = molecular target: T1, Rrn7p subunit of recombinant core …; test: quantification of Sypro Ruby stained SDS-PAGE bands of the purified complex
# [2] = molecular target: B1; test: as above
Binder,stoichiometry N [1],stoichiometry N [2]
B1,1,–
"Rrn6p subunit of recombinant core factor (natural protein, S. cerevisiae, UniProt P32786 1-894, looked up) MSEGQIPSSDVLGSQLGVGVQGASLYCPQENYTTKKQEKPQWLRPVDDTLAEDALDLHIVVKSLLCDTAIRYISDDKVLQESDADDDLITSDIDEDTDNQGDTSIVVNPVIPVVPKDVHFFKKVDVGNDSMFGVNCDTPVSFQDYIPSDLLRNLDDTLQESTNSSRPMQDAFFWDPTVANRLDSQYIQTASDLRNYRDGTEIIAYASGKTGSVLNIAVLTRQNTLHLNRHNNVTSIELHSPIKSIKIPGASESIGRRSNLVGIITENSFQIFRIESVHSRSCDVMVSSSEPLYFVEIDDLQVVDFAFNPWDLQQFAIIDIKGNWSIGRIPKNFNNNNKRKLQLIDNLHGTIFDPEELSSWKRIEWFSHFQKILVFDRSKMIEIDFMNNWQTEVVQAKAWSNIRDYKRIDDKNGILLTSREIIIVGASESNDPVRRISWKHDLDPDDTTLRITVQKVKKPDHILLVAFVYSMRHKRIYMHVFSHRKANLFQSLGCSTVLEIPGGTPTGIETILTLDHIDDESRREEDADENFELVVDFLVKLRNSSEVYYYALSNTQNSEPNKQETPIIVDHPEWASLFNNADEREKESIGALVSQIKLKERERISRVQNLIEHENSHDEDKYLQDLGYRLSIATNELLESWQKTKDESILSGSLSHSKLKNLLENSDSFASIPEFSSLLDQFFQYYQDQDVTFIGFEKLLHLFLHEDVPGLDIFYNKLLQCWVLVSPQAELLTKEIVKDIIWSLARLEKPSLFEPIQNEISRSLSGPYQDIISSWDMDDINEEDESNEFNFDSQFSAPFNGRPPFNLNSQSQIPTIKSSQSSGLARRKRILKTQSQKATPLSQSTQNLSVLPDSMTPAFTLMQPPSSQISFVNDSQPRNSQKAKKKKKRIRGFG",1,1
